Reference: publication PMC7483370 (Molecular cell, 2020)

T1: Androgen receptor, full-length, flag-tagged, recombinant (baculovirus) (human, UniProt P10275 1-920)
T1 sequence (looked up): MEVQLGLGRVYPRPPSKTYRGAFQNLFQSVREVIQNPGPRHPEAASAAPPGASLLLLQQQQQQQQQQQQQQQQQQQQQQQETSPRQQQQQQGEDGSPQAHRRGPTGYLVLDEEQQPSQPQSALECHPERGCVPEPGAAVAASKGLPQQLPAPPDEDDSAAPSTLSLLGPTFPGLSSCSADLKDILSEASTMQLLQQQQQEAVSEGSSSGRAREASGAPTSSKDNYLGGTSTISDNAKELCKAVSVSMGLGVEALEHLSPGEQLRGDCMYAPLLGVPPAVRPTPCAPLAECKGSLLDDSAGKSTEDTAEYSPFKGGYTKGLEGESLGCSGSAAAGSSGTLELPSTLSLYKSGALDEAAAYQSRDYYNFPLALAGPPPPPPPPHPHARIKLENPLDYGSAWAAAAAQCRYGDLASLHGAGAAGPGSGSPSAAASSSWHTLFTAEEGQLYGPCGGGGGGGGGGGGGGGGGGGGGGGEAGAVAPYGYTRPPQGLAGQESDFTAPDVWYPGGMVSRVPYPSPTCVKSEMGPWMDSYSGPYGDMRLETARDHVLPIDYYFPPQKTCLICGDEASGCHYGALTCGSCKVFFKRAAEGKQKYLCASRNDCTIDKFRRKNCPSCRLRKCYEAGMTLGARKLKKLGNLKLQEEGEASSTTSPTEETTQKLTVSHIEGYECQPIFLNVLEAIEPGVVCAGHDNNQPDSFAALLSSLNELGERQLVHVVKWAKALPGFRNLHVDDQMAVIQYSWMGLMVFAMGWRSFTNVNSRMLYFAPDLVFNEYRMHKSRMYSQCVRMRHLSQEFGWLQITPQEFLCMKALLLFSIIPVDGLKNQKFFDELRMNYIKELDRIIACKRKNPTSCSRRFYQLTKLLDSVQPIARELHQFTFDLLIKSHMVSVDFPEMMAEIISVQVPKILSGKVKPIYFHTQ

B1: SRC-3, purified recombinant (baculovirus) (natural protein)
chain: not shown
B2: Flag-tagged AR (1-669aa), deletion mutant lacking the LBD (domain or fragment, human, UniProt P10275 1-669, looked up)
chain: MEVQLGLGRVYPRPPSKTYRGAFQNLFQSVREVIQNPGPRHPEAASAAPPGASLLLLQQQQQQQQQQQQQQQQQQQQQQQETSPRQQQQQQGEDGSPQAHRRGPTGYLVLDEEQQPSQPQSALECHPERGCVPEPGAAVAASKGLPQQLPAPPDEDDSAAPSTLSLLGPTFPGLSSCSADLKDILSEASTMQLLQQQQQEAVSEGSSSGRAREASGAPTSSKDNYLGGTSTISDNAKELCKAVSVSMGLGVEALEHLSPGEQLRGDCMYAPLLGVPPAVRPTPCAPLAECKGSLLDDSAGKSTEDTAEYSPFKGGYTKGLEGESLGCSGSAAAGSSGTLELPSTLSLYKSGALDEAAAYQSRDYYNFPLALAGPPPPPPPPHPHARIKLENPLDYGSAWAAAAAQCRYGDLASLHGAGAAGPGSGSPSAAASSSWHTLFTAEEGQLYGPCGGGGGGGGGGGGGGGGGGGGGGGEAGAVAPYGYTRPPQGLAGQESDFTAPDVWYPGGMVSRVPYPSPTCVKSEMGPWMDSYSGPYGDMRLETARDHVLPIDYYFPPQKTCLICGDEASGCHYGALTCGSCKVFFKRAAEGKQKYLCASRNDCTIDKFRRKNCPSCRLRKCYEAGMTLGARKLKKLGNLKLQEEGEASSTTSPTEETTQKLTVSHIEGYE

Columns and labels:
[1] = target: T1, Androgen receptor, full-length, …; test: cryo-EM structure
[2] = target: p300, purified recombinant (baculovirus) (human, UniProt Q09472 1-2414); test: co-IP
p300, purified recombinant (baculovirus), sequence (Q09472 whole entry): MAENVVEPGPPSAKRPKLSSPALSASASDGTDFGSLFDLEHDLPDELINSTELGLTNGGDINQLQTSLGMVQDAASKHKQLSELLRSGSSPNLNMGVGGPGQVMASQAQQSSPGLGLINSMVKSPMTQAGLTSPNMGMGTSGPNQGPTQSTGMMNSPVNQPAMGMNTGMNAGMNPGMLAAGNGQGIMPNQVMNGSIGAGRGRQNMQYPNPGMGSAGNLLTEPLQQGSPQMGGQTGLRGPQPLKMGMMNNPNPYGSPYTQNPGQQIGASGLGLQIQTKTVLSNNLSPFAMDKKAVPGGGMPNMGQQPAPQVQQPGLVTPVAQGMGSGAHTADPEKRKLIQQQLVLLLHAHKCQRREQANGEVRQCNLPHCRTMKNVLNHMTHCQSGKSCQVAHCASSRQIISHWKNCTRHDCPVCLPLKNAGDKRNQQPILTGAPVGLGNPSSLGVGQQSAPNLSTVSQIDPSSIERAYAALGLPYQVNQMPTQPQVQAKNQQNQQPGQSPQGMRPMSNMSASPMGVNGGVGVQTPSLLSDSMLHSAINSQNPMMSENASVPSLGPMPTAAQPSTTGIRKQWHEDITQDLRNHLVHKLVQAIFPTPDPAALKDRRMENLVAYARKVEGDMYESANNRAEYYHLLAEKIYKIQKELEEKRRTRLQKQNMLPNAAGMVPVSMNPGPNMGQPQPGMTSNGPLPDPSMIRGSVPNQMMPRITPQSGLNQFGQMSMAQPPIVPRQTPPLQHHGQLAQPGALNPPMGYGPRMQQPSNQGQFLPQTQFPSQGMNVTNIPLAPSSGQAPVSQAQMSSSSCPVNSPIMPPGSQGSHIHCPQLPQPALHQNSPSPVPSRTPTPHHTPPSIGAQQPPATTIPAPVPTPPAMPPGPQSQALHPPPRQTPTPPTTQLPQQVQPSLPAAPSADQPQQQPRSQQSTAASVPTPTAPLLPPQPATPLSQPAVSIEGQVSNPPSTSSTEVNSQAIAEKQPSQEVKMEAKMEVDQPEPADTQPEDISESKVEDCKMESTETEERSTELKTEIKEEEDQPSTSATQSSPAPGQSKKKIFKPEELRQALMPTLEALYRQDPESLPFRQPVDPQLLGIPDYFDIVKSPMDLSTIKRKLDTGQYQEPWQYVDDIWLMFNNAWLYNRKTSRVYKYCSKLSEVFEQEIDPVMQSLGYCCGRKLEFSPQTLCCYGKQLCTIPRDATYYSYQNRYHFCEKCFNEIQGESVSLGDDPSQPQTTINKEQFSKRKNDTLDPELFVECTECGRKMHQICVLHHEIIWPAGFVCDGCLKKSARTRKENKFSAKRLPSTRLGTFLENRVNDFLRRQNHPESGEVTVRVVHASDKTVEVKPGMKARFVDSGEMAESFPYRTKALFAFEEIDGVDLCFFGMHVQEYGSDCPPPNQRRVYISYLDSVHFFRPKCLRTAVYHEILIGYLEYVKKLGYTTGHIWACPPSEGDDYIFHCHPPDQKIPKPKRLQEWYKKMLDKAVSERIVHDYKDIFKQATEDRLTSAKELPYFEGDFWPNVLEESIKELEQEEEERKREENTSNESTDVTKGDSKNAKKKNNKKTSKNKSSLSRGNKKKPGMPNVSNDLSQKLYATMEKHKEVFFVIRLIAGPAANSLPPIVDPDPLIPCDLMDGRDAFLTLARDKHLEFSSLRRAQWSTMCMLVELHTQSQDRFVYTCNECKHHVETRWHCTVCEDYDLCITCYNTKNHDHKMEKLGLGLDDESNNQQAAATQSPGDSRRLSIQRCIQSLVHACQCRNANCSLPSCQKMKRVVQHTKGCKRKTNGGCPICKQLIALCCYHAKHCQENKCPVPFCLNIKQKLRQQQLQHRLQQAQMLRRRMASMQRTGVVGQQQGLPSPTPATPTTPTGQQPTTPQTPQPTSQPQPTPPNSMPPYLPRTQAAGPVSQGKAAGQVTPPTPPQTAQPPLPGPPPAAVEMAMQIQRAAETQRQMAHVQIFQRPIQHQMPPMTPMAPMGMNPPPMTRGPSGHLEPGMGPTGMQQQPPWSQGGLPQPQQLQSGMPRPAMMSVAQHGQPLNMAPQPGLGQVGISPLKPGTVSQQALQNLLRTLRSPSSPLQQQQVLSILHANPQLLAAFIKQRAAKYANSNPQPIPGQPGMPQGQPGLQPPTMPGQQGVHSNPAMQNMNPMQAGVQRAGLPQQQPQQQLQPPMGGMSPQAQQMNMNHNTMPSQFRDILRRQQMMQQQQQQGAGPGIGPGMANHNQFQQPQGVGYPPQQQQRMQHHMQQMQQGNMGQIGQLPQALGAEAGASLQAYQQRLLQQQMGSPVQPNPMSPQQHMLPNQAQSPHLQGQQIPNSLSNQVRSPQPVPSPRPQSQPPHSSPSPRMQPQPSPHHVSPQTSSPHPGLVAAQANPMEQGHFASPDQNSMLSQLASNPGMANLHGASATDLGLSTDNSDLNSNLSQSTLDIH

Row | Binder | stoichiometry N [1] | binding result [2]
1 | B1 | 1 | –
2 | B2 | – | binds
